± gives the uncertainty stated by the source.
B1: Pituitary-specific positive transcription factor 1, residues 130 to 198; numbered along this chain, P28069 (parent)
chain: RELEKFANEFKVRRIKLGYTQTNVGEALAAVHGSEFSQTTICRFENLQLSFKNACKLKAILSKWLEEAE

Variants of: B1
Experiment: abundance fitness (aPCA) (normalised: wild type 0, dead -1); higher = more abundant; growth selection in yeast, the domain comes from the species named
Conditions: Homo sapiens

Variant	abundance fitness
REDEKFANEFKVRRIKLGYTQTNVGEALAAVHGSEFSQTTICRFENLQLSFKNACKLKAILSKWLEEAE [L3D]	-0.794 ± 0.22
REFEKFANEFKVRRIKLGYTQTNVGEALAAVHGSEFSQTTICRFENLQLSFKNACKLKAILSKWLEEAE [L3F]	-0.472 ± 0.12
REHEKFANEFKVRRIKLGYTQTNVGEALAAVHGSEFSQTTICRFENLQLSFKNACKLKAILSKWLEEAE [L3H]	-0.611 ± 0.18
REGEKFANEFKVRRIKLGYTQTNVGEALAAVHGSEFSQTTICRFENLQLSFKNACKLKAILSKWLEEAE [L3G]	-0.571 ± 0.11
REEEKFANEFKVRRIKLGYTQTNVGEALAAVHGSEFSQTTICRFENLQLSFKNACKLKAILSKWLEEAE [L3E]	-0.725 ± 0.29
RECEKFANEFKVRRIKLGYTQTNVGEALAAVHGSEFSQTTICRFENLQLSFKNACKLKAILSKWLEEAE [L3C]	-0.953 ± 0.44
REKEKFANEFKVRRIKLGYTQTNVGEALAAVHGSEFSQTTICRFENLQLSFKNACKLKAILSKWLEEAE [L3K]	-0.718 ± 0.26
REYEKFANEFKVRRIKLGYTQTNVGEALAAVHGSEFSQTTICRFENLQLSFKNACKLKAILSKWLEEAE [L3Y]	-0.22 ± 0.13
RESEKFANEFKVRRIKLGYTQTNVGEALAAVHGSEFSQTTICRFENLQLSFKNACKLKAILSKWLEEAE [L3S]	-0.855 ± 0.19
RETEKFANEFKVRRIKLGYTQTNVGEALAAVHGSEFSQTTICRFENLQLSFKNACKLKAILSKWLEEAE [L3T]	-0.867 ± 0.4
REIEKFANEFKVRRIKLGYTQTNVGEALAAVHGSEFSQTTICRFENLQLSFKNACKLKAILSKWLEEAE [L3I]	-0.194 ± 0.22
REVEKFANEFKVRRIKLGYTQTNVGEALAAVHGSEFSQTTICRFENLQLSFKNACKLKAILSKWLEEAE [L3V]	-0.468 ± 0.082
RTLEKFANEFKVRRIKLGYTQTNVGEALAAVHGSEFSQTTICRFENLQLSFKNACKLKAILSKWLEEAE [E2T]	-0.334 ± 0.12
RWLEKFANEFKVRRIKLGYTQTNVGEALAAVHGSEFSQTTICRFENLQLSFKNACKLKAILSKWLEEAE [E2W]	-0.541 ± 0.094
RRLEKFANEFKVRRIKLGYTQTNVGEALAAVHGSEFSQTTICRFENLQLSFKNACKLKAILSKWLEEAE [E2R]	-0.624 ± 0.091
RHLEKFANEFKVRRIKLGYTQTNVGEALAAVHGSEFSQTTICRFENLQLSFKNACKLKAILSKWLEEAE [E2H]	-0.968 ± 0.39
RSLEKFANEFKVRRIKLGYTQTNVGEALAAVHGSEFSQTTICRFENLQLSFKNACKLKAILSKWLEEAE [E2S]	-0.443 ± 0.069
RALEKFANEFKVRRIKLGYTQTNVGEALAAVHGSEFSQTTICRFENLQLSFKNACKLKAILSKWLEEAE [E2A]	-0.412 ± 0.087
RILEKFANEFKVRRIKLGYTQTNVGEALAAVHGSEFSQTTICRFENLQLSFKNACKLKAILSKWLEEAE [E2I]	-0.676 ± 0.15
RPLEKFANEFKVRRIKLGYTQTNVGEALAAVHGSEFSQTTICRFENLQLSFKNACKLKAILSKWLEEAE [E2P]	-0.462 ± 0.19
RVLEKFANEFKVRRIKLGYTQTNVGEALAAVHGSEFSQTTICRFENLQLSFKNACKLKAILSKWLEEAE [E2V]	-0.895 ± 0.18
RGLEKFANEFKVRRIKLGYTQTNVGEALAAVHGSEFSQTTICRFENLQLSFKNACKLKAILSKWLEEAE [E2G]	-0.373 ± 0.072
RYLEKFANEFKVRRIKLGYTQTNVGEALAAVHGSEFSQTTICRFENLQLSFKNACKLKAILSKWLEEAE [E2Y]	-0.651 ± 0.27

Variant	abundance fitness
RKLEKFANEFKVRRIKLGYTQTNVGEALAAVHGSEFSQTTICRFENLQLSFKNACKLKAILSKWLEEAE [E2K]	-0.471 ± 0.24
RCLEKFANEFKVRRIKLGYTQTNVGEALAAVHGSEFSQTTICRFENLQLSFKNACKLKAILSKWLEEAE [E2C]	-0.984 ± 0.32
RQLEKFANEFKVRRIKLGYTQTNVGEALAAVHGSEFSQTTICRFENLQLSFKNACKLKAILSKWLEEAE [E2Q]	-0.523 ± 0.16
RLLEKFANEFKVRRIKLGYTQTNVGEALAAVHGSEFSQTTICRFENLQLSFKNACKLKAILSKWLEEAE [E2L]	-0.672 ± 0.14
RDLEKFANEFKVRRIKLGYTQTNVGEALAAVHGSEFSQTTICRFENLQLSFKNACKLKAILSKWLEEAE [E2D]	-0.109 ± 0.2
RNLEKFANEFKVRRIKLGYTQTNVGEALAAVHGSEFSQTTICRFENLQLSFKNACKLKAILSKWLEEAE [E2N]	-0.518 ± 0.19
VELEKFANEFKVRRIKLGYTQTNVGEALAAVHGSEFSQTTICRFENLQLSFKNACKLKAILSKWLEEAE [R1V]	-0.441 ± 0.14
EELEKFANEFKVRRIKLGYTQTNVGEALAAVHGSEFSQTTICRFENLQLSFKNACKLKAILSKWLEEAE [R1E]	-0.348 ± 0.48
DELEKFANEFKVRRIKLGYTQTNVGEALAAVHGSEFSQTTICRFENLQLSFKNACKLKAILSKWLEEAE [R1D]	-0.187 ± 0.099
KELEKFANEFKVRRIKLGYTQTNVGEALAAVHGSEFSQTTICRFENLQLSFKNACKLKAILSKWLEEAE [R1K]	0.376 ± 0.14
IELEKFANEFKVRRIKLGYTQTNVGEALAAVHGSEFSQTTICRFENLQLSFKNACKLKAILSKWLEEAE [R1I]	-0.508 ± 0.15
MELEKFANEFKVRRIKLGYTQTNVGEALAAVHGSEFSQTTICRFENLQLSFKNACKLKAILSKWLEEAE [R1M]	-0.712 ± 0.26
TELEKFANEFKVRRIKLGYTQTNVGEALAAVHGSEFSQTTICRFENLQLSFKNACKLKAILSKWLEEAE [R1T]	-0.371 ± 0.19
FELEKFANEFKVRRIKLGYTQTNVGEALAAVHGSEFSQTTICRFENLQLSFKNACKLKAILSKWLEEAE [R1F]	-0.128 ± 0.23
LELEKFANEFKVRRIKLGYTQTNVGEALAAVHGSEFSQTTICRFENLQLSFKNACKLKAILSKWLEEAE [R1L]	-0.306 ± 0.37
NELEKFANEFKVRRIKLGYTQTNVGEALAAVHGSEFSQTTICRFENLQLSFKNACKLKAILSKWLEEAE [R1N]	-0.37 ± 0.17
RELIKFANEFKVRRIKLGYTQTNVGEALAAVHGSEFSQTTICRFENLQLSFKNACKLKAILSKWLEEAE [E4I]	-0.145 ± 0.069
RELDKFANEFKVRRIKLGYTQTNVGEALAAVHGSEFSQTTICRFENLQLSFKNACKLKAILSKWLEEAE [E4D]	-0.612 ± 0.32
RELAKFANEFKVRRIKLGYTQTNVGEALAAVHGSEFSQTTICRFENLQLSFKNACKLKAILSKWLEEAE [E4A]	0.043 ± 0.084
RELFKFANEFKVRRIKLGYTQTNVGEALAAVHGSEFSQTTICRFENLQLSFKNACKLKAILSKWLEEAE [E4F]	-0.316 ± 0.087
RELGKFANEFKVRRIKLGYTQTNVGEALAAVHGSEFSQTTICRFENLQLSFKNACKLKAILSKWLEEAE [E4G]	-0.848 ± 0.35
RELCKFANEFKVRRIKLGYTQTNVGEALAAVHGSEFSQTTICRFENLQLSFKNACKLKAILSKWLEEAE [E4C]	-0.552 ± 0.21
